Patent US20170198056A1 (MEDICINAL CHEMISTRY PHARMACEUTICALS, published 2017)
*: point of attachment. αGalNAc = CC(=O)N[C@@H]1[C@@H](O)[C@@H](O)[C@@H](CO)O[C@@H]1*

What was measured:
[1] = biological target: T1, Compound 15: 5-oxohexanoyl-Ser-Ala-Ser-Thr-Gly-His-Ala-Thr(Tn)-Pro-Leu-Pro-Val-Thr-Asp-Thr-Ser-Cys-NH2 (human); test: glycopeptide microarray, Cy3 anti-mouse IgG
T1 construct: also called glycopeptide in which Tn has been modified in the tandem unit peptide of MUC4
T1 peptide: {5‑oxohexanoyl}-SASTGHAT(αGalNAc)PLPVTDTSC-NH2

[2] = biological target: T2, Compound 13: … (human); test: glycopeptide microarray, Cy3 anti-mouse IgG
T2 construct: also called glycopeptide in which Tn has been modified in the tandem unit peptide of MUC2
T2 peptide: {5‑oxohexanoyl}-PPTT(αGalNAc)T(αGalNAc)PSPPPTSTT(αGalNAc)T(αGalNAc)LPPT-NH2

B1: Monoclonal antibody SN-101 (antibody, V domains shown)
VH: EVNLEESGGGLVQPGGSMKLSCVASGFTFSNYWMNWVRQSPEKGLEWVAQIRLKSDNYATHYAESVKGRFTISRDDSKSSVYLQMNNLRAEDTGIYYCTGGVFDYWGQGTTLTVSS
VL: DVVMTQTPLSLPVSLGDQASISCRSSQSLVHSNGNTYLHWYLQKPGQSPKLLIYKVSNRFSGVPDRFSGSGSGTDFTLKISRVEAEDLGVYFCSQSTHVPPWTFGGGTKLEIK
notes: Mouse monoclonal antibody from a hybridoma; it was purified on Protein G and detected with anti-mouse IgG; The array assay used culture supernatant diluted 10-fold; also called antibody of hybridoma strain 3A9-4B1 (NITE BP-01845)
B1: no binding [1]; no binding [2].
